Consider 42 sequences from the Immune Epitope Database (IEDB).

Assay [1] addresses HLA-A*03:01. As to the kind of experiment: IEDB peptide-MHC binding, purified MHC/competitive/radioactivity; filed as Kd, often an IC50 or EC50 that approximates it; ≥ and ≤ were set here for values at or beyond the usual limits of such assays.
The next assay concerns the target HLA-A*30:01. The assay is described as above.
A further assay concerns the target HLA-A*32:01. The description is as above.
In assay [2] the target is HLA-A*11:01. The assay is described as above. The note with it: source organism: Dengue virus 1 Brazil/97-11/1997.
Assay [3] deals with HLA-A*02:01. The experiment in a line: IEDB peptide-MHC binding, purified MHC/direct/fluorescence; filed as Kd, often an IC50 or EC50 that approximates it; ≥ and ≤ were set here for values at or beyond the usual limits of such assays.
The target of another assay is HLA-A*69:01. The assay is described as above.
For another assay, the target named is HLA-B*07:02. Described as above.
The target of assay [4] is HLA-A*01:01. The experiment in a line: IEDB peptide-MHC binding, purified MHC/competitive/radioactivity; filed as Kd, often an IC50 or EC50 that approximates it; ≥ and ≤ were set here for values at or beyond the usual limits of such assays. The note with it: source organism: Dengue virus 2 Jamaica/1409/1983.
Another assay has as its target HLA-A*26:01. The assay is described as above.
The target of the next assay is HLA-A*24:02. As to the kind of experiment: IEDB peptide-MHC binding, purified MHC/competitive/fluorescence; ≥ and ≤ were set here for values at or beyond the usual limits of such assays.
The target of assay [5] is HLA-A*02:01. The assay is described as above.
Assay [6] has as its target HLA-A*01:01. The experiment in a line: IEDB peptide-MHC binding, purified MHC/direct/fluorescence; filed as Kd, often an IC50 or EC50 that approximates it; ≥ and ≤ were set here for values at or beyond the usual limits of such assays. The note with it: source organism: SARS-CoV1.
Assay [7] concerns the target HLA-A*11:01. The assay is described as above.
The next assay concerns the target HLA-A*02:03. The experiment in a line: IEDB peptide-MHC binding, purified MHC/competitive/radioactivity; filed as Kd, often an IC50 or EC50 that approximates it; ≥ and ≤ were set here for values at or beyond the usual limits of such assays. The note with it: source organism: SARS coronavirus Tor2.
The next assay concerns the target HLA-A*02:06. The assay is described as above. The note with it: source organism: SARS coronavirus Tor2.
In a further assay the target is HLA-A*02:02. The description is as above. The note with it: source organism: SARS coronavirus Tor2.
For another assay, the target named is HLA-B*15:01. As to the kind of experiment: IEDB peptide-MHC binding, purified MHC/direct/fluorescence; filed as Kd, often an IC50 or EC50 that approximates it; ≥ and ≤ were set here for values at or beyond the usual limits of such assays.
Another assay deals with HLA-B*35:01. The experiment in a line: IEDB peptide-MHC binding, purified MHC/competitive/radioactivity; filed as Kd, often an IC50 or EC50 that approximates it; ≥ and ≤ were set here for values at or beyond the usual limits of such assays. The note with it: source organism: Dengue virus 1 Brazil/97-11/1997.
Assay [8] deals with HLA-A*03:01. The experiment in a line: IEDB peptide-MHC binding, purified MHC/direct/fluorescence; filed as Kd, often an IC50 or EC50 that approximates it; ≥ and ≤ were set here for values at or beyond the usual limits of such assays. The note with it: source organism: Homo sapiens.
The next assay addresses HLA-B*58:01. The description is as above. Conditions: source organism: Homo sapiens.
[9] abbreviates: source organism: Dengue virus 3 Martinique/1243/1999.
Setting [10] is: source organism: Vaccinia virus WR.
[11] abbreviates: source organism: Dengue virus 1 Brazil/97-11/1997.
Where [12] appears, read: source organism: Marburg virus - Musoke, Kenya, 1980.
Where [13] appears, read: source organism: Mycobacterium tuberculosis.
The mark [14] stands for this setting: source organism: Dengue virus 2 Jamaica/1409/1983.
[15] abbreviates: source organism: Zaire ebolavirus.
Setting [16] is: source organism: Burkholderia mallei.
Setting [17] is: source organism: Vaccinia virus.

In general, Kd refers to the equilibrium constant for the complex coming apart. For AIKVLKGFK, the Kd in the assay with HLA-A*03:01 [1] (setting [9]) came to 157 nM; with HLA-A*30:01 (setting [9]), 1390 nM. With AIMMILSTI, in the assay with HLA-A*32:01 (setting [10]), the Kd amounted to 2.45 nM. As to ALLATSIFK, the figures for the dissociation constant Kd in the assay with HLA-A*03:01 [1] (setting [11]), with HLA-A*11:01 [2] and in the assay with HLA-A*30:01 (setting [11]) were 4.12 nM, 23.4 nM and 544 nM, respectively. Consider ALLTGSYTI, for which the Kd came to 0.5 nM with HLA-A*02:01 [3] (setting [12]) and 6660 nM in the assay with HLA-A*69:01 (setting [12]).

Consider AMLAGTAVV, for which, in the assay with HLA-A*02:01 [3] (setting [13]), the dissociation constant (Kd) was found to be 5.9 nM. Turning to APTGDLPRA, the dissociation constant (Kd) with HLA-B*07:02 (source organism: Homo sapiens) is 5520 nM; in the assay with HLA-A*02:01 [3] (source organism: Homo sapiens) it was at least 21800 nM; with HLA-A*69:01 (source organism: Homo sapiens), 6780 nM.

For the sequence ATARSSPEK, in the assay with HLA-A*30:01 (setting [10]), the Kd was 0.584 nM.

Take ATVTGGIFLF: the Kd in the assay with HLA-A*01:01 [4] was determined as 2030 nM; with HLA-A*26:01 (setting [14]) it was 2510 nM. On to AVPVHWVPTS, for which, in the assay with HLA-A*30:01 (setting [9]), the Kd was 10500 nM.

In general, IC50 refers to the concentration that inhibits the measured activity by half. A lower IC50 goes with greater potency. With AWIPYFGPA, the results for the half-inhibitory concentration (IC50) with HLA-A*24:02 (setting [15]) and in the assay with HLA-A*02:01 [5] (setting [15]) were at least 81100 nM and 20000 nM, respectively.

Turning to CLRCSKLNL, the Kd in the assay with HLA-A*30:01 (setting [10]) was determined as 482 nM. With DAAAPLPPV, the dissociation constant Kd with HLA-A*02:01 [3] (setting [16]) was at least 20000 nM; with HLA-A*69:01 (setting [16]) it was 0.8 nM. DGIRGFPRC displayed an IC50 with HLA-A*02:01 [5] (setting [15]) of at least 126000 nM. DKLSSTNQL returned an IC50 in the assay with HLA-A*24:02 (setting [15]) of 16200 nM. For the sequence EEINNQLLL, the IC50 with HLA-A*24:02 (setting [17]) worked out at 57800 nM. This counts as double-digit micromolar. The same measure, in the same setting: for EFLRYLLFG the value was 17800 nM. As to EIQLTDYGAL, in the assay with HLA-A*26:01 (setting [11]), the Kd stood at 5580 nM. Consider ELSFTVVSN, for which the IC50 with HLA-A*24:02 (setting [15]) was at least 119000 nM; with HLA-A*02:01 [5] (setting [15]), at least 220000 nM. In the assay with HLA-B*07:02 (source organism: Human immunodeficiency virus 1), EPIVGAETF came in with a dissociation constant (Kd) of 5640 nM.

For ETTKRDLGM, in the assay with HLA-A*26:01 (setting [9]), the dissociation constant (Kd) is 1450 nM. With FLNEDHWFGR, the Kd with HLA-A*32:01 (source organism: Dengue virus 4 Philippines/H241/1956) turned out to be 1560 nM.

FNYLFGGFS yielded an IC50 with HLA-A*02:01 [5] (source organism: Variola virus) of 51600 nM. In turn, FRKSSFFVW showed a half-inhibitory concentration (IC50) with HLA-A*24:02 (source organism: Sudan ebolavirus) of 2420 nM. This lies in the single-digit micromolar range. With FTPQFLLQL, the IC50 with HLA-A*24:02 (setting [15]) was 814 nM; with HLA-A*02:01 [5] (setting [15]), 292 nM. Consider FVDGVPFVV, for which the Kd with HLA-A*01:01 [6] is 1410 nM; with HLA-A*11:01 [7] (source organism: SARS-CoV1) it was at least 23100 nM; with HLA-A*02:01 [3] (source organism: SARS-CoV1), 124 nM; with HLA-A*69:01 (source organism: SARS-CoV1) it was 23.3 nM; with HLA-A*02:03, 85.9 nM; in the assay with HLA-A*02:06 it was 0.908 nM. Further, the Kd with HLA-A*02:02 is 9.62 nM. Take GKIIHEWCCR: the dissociation constant (Kd) with HLA-A*32:01 (setting [11]) was at least 51600 nM. GLDPTGVAV displayed a Kd with HLA-A*02:01 [3] (setting [13]) of 17.4 nM. Turning to GLVSKFMSN, the half-inhibitory concentration (IC50) in the assay with HLA-A*02:01 [5] (setting [10]) amounted to 13800 nM. In other words, the double-digit micromolar range.

The sequence GMHHLYREY yielded a dissociation constant (Kd) with HLA-B*15:01 (source organism: Mammarenavirus juninense) of 135 nM. Consider GNPGRFWNTT, for which the Kd in the assay with HLA-A*32:01 (setting [14]) amounted to 9900 nM. On to GPILTLWEGN, for which the Kd with HLA-A*32:01 (source organism: Dengue virus 4 Dominica/814669/1981) turned out to be 504 nM. For the sequence GQLKLNWFKK, the dissociation constant Kd with HLA-A*32:01 (setting [14]) turned out to be 2070 nM. With GRQTQSRPI, the IC50 in the assay with HLA-A*24:02 (setting [15]) was at least 204000 nM. Turning to GSKASCVLK, the Kd with HLA-A*30:01 (setting [10]) was determined as 265 nM. Regarding GTNGISNGI, the equilibrium dissociation constant (Kd) with HLA-A*32:01 (setting [10]) amounted to 20.1 nM. GVTGILQLP: the IC50 with HLA-A*02:01 [5] (setting [15]) turned out to be 63500 nM.

For HAHWTEAKM, in the assay with HLA-B*35:01, the Kd amounted to 285 nM. Take HHRRTDNDS: in the assay with HLA-A*02:01 [5] (setting [15]), the IC50 is at least 72100 nM.

Take HILGPDCCI: the concentration for half-maximal inhibition (IC50) with HLA-A*24:02 (setting [15]) was at least 135000 nM; with HLA-A*02:01 [5] (setting [15]), 66400 nM. Turning to IADMGHLKY, the Kd in the assay with HLA-B*15:01 (source organism: Homo sapiens) worked out at 4090 nM; with HLA-A*03:01 [8], 3030 nM; in the assay with HLA-A*11:01 [7] (source organism: Homo sapiens) it was 2800 nM; in the assay with HLA-B*58:01, 2000 nM.

In the case of IAVGMVTLY, in the assay with HLA-B*35:01, the dissociation constant Kd was determined as 13.5 nM. In the case of IDSMFLMTA, the half-inhibitory concentration (IC50) with HLA-A*02:01 [5] (source organism: Variola virus) is 28700 nM. In other words, the double-digit micromolar range.
